Consider 20 sequences from the DeepSol protein solubility set.

The series is described as follows: soluble on expression in E. coli; label from the status in PepcDB or PDB records.
As for “MPTNNAPQVAINDIGSAEDFLAAIDATIKYFNDGDIVEGTVVKVDRDEVLLDIGYKTEGVIPSRELSIKHDVDPDEVVEVGDQIDALVLTKEDKEGRLILSKKRAQYERAWGAIEELKEKDEPVTGTVIEVVKGGLIIDIGLRGFLPASLVEMRRVRDLDPYIGQELEAKIIELDKNRNNVVLSRRAFLEQTQSEVRSEFLHQLQKGQVRKGVVSSIVNFGAFVDLGGVDGLVHVSELSWKHIDHPSEVVTVGDEVTVEVLEVDLDRERVSLSLKATQEDPWRVFARTHAVGQIVPGKVTKLVPFGAFVRVEEGIEGLVHISELAQRHVEVPDQVVAVGEEVMVKVIDIDLERRRISLSLKQADEDYTEEFDPSKYGMADSYDEQGNYIFPEGFDAETNEWLEGFDEQRQAWEARYAESERRFTAHTAQIERRRQQAEEAAAEAPAGNYSTDSAEDAPAAEAVEESAGSLASDEQLAALREKLAGNLEHHHHHH”, the “soluble on expression in E. coli” value is “soluble”.

For the sequence “MGSDKIHHHHHHMNKTITIDPVTRIEGHARVFIDLDDGGALKAAGLVVNELRGFEKILTGMDADRMPLVTARICGVCPTAHHLAATNALDNAAGVEPPTAAKLLRELMYMGHLIHSHCLSLFVLQGPDLVLGLDADPAIRNVVGVVQAVPDIARKALQCRSIGQKINELVGGRGTHPVTSVAGGIAFVLDADRERQLNAWIQEAHGLVLELAPVVKQLLMKMLDANPAMLEQWVIPAWSVGTVKGDGTIALVNGEIRAIDESGARKAQFPTAGYDTHLSEAAVDFSYMKQVSFVEGETRHDYRVGPLARLNISDRYGTPLADREREEFIRTVGRPCHANALQPWARLIELLYCTERAQEIMASPEIHGETRVPVKFSGGRGVGHVEAPRGTLIHDYEIDENGIVRAANLIVATQQNYALINTMIAQAATSHVINRPDDQALLNAVEFGIRCYDPCLSCATHALGAMPLEIVVNRADRPHLIRRNC”, the “soluble on expression in E. coli” value is given as “not soluble”. The result for “MGSDKIHHHHHHMTLEQLLMFNTVALAGSLKAASDKLHKTQPAISQSIKQLESQLDVVLFDRQGYRLALTQEGRKLLQYAQRVLNEAQEMRQVAKHLAIGNEASITLAFEASFNLARILPMLERTQLEFPHTQIILKQEYLTGALEALNQGKADIAISAGGIESMRSNHFELGFLFSGSLLDVASPRLLSRYPSLSHVKELVNEYQIVIQDTGTGTANIEFGVQAGQRRWYVNDFYTKKMLIQSGMGWGKLPYYMVEEALANGSLHPLELKERQNLIQLDYYVMRRPQSPLGPVAQALWENLVQLATKQS” reads “not soluble”; that for “GKPKTDTDFQTYNGDGFKLQIPSKWNPNKEVEYPGQVLRFEDNFDATSNVIVAITPTDKKSITDFGSPEQFLSQVDYLLGRQAYSGKTDSEGGFESDAVAIANVLETSTAEVGGKQYYYLSILTRTADGNEGGKHQLVTATVNDGKLYICKAQAGDKRWFKGAKKFVENTATSFSLA”, “soluble”.

For the sequence “MNHKVHHHHHHIEGRHMAVVKEVLEIAEKIKNMEIRGAGKIARSAAYALQLQAEKSKATNVDEFWKEMKQAAKILFETRPTAVSLPNALRYVMHRGKIAYSSGADLEQLRFVIINAAKEFIHNSEKALERIGEFGAKRIEDGDVIMTHCHSKAAISVMKTAWEQGKDIKVIVTETRPKWQGKITAKELASYGIPVIYVVDSAARHYMKMTDKVVMGADSITVNGAVINKIGTALIALTAKEHRVWTMIAAETYKFHPETMLGQLVEIEMRDPTEVIPEDELKTWPKNIEVWNPAFDVTPPEYVDVIITERGIIPPYAAIDILREEFGWALKYTEPWED”, the “soluble on expression in E. coli” value is “soluble”. As for “MGQDTDMLNTYQQLVRTPSVRPGQDVRLQAPGTRTGLLKLLSTVSQDKQGCLGSGDGVPNQDLQQRSQSSRQTAKKDRKPRGQSKKGQGSEESEDHFPLLPRKPSFPFQWAWESIATDVRAVLQPSSPTPGHQALPMPSSFSQRQSRRKSTANLPEAHGCCWKTEAQNLKARQQLGAWGGVSIPTGKGELGSEPPSGLQLPGRRPGSGSASDKQVQLQSLGAEEAERGLSSGVLPQRPRRGSISEEEQFSEATEEAEEGEHRTPCRRRAGCQRKGQISGEEASDEGEVQGQSQGSSPSFNNLRRRQWRKTRAKELQGPWDLEKLHRQLQRDLDCGPQKLPWKTLRAAFQASKRNGKAYASGYDETFVSANLPNRTFHKRQEATRSLLQAWERQRQEERQQAELRRARTQHVQRQVAHCLAAYAPRGSRGPGAAQRKLEELRRQERQRFAEYQAELQGIQHRVQARPFLFQQAMQANARLTVTRRFSQVLSALGLDEEQLLSEAGKVDREGTPRKPRSHRSVGVRMEHSPQRPPRTEPTGSQPDRHYNPSLDPECSP”, the “soluble on expression in E. coli” value is “not soluble”. In the case of “MSMIETWTAVDQYVSDVLIPKDSTLEEVLQVNAAANLPAHDVSPTQGKFLQLLVQIQGARNILEIGTLGGYSTIWLARGLSSGGRVVTLEASEKHADIARSNIERANLNDRVEVRTGLALDSLQQIENEKYEPFDFIFIDADKQNNPAYFEWALKLSRPGTVIIGDNVVREGEVIDNTSNDPRVQGIRRFYELIAAEPRVSATALQTVGSKGYDGFIMAVVKE”, the “soluble on expression in E. coli” value is reported as “soluble”. Next, “PRNSKNDGVDTAIYHHKLRDQVLKALYDVLAKESEHPPQSILHTAKAIESEMNKVNNCDTNEAAYKARYRIIYSNVISKNNPDLKHKIANGDITPEFLATCDAKDLAPAPLKQKIEEIAKQNLYNAQGATIERSVTDRFTCGKCKEKKVSYYQLQTRSADEPLTTFCTCEACGNRWKFS”: “soluble”; “MSLTGLCDSHLHTPLCGHATGTPREYAQAALDAGLSGLCFTDHMPMPRWYDAPWRMKLEQLPEYIAEIQAVQQEFAGRLDVRLGLEADFHPGTEKFVEKVLGMFDWDYVIGSVHYLGAWGFDNPEFVAEYEERDLGGLYRDYYALVEGAARSGLFDAIGHLDLPKKFGHLDPDPVYALHALDVVAGQGLALDFNTAGWRKPVAEAYPAPDLVRAAAERGIPFVLGSDAHQPGEVGFRFADAVKEIRDVGGRTVTFRHRKMQEGHHHHHH”: “soluble”; “VKLTEKQKAFCDYYIETLNATESYKKAGYKVKTDGAARVNASRLLTNANVRKYIEERMKQKESERIASQDEVLEFLTRVMRGQEVEEVVGFTEYGAVKEKKTPSARDRVKAAELLGKRYALFTEKVNVEGNMGVAIIDDIKEDDSDDAS”: “soluble”. For “MKPLSWSEAFGKGAGRIQASTIRELLKLTQRPGILSFAGGLPAPELFPKEEAAEAAARILREKGEVALQYSPTEGYAPLRAFVAEWIGVRPEEVLITTGSQQALDLVGKVFLDEGSPVLLEAPSYMGAIQAFRLQGPRFLTVPAGEEGPDLDALEEVLKRERPRFLYLIPSFQNPTGGLTPLPARKRLLQMVMERGLVVVEDDAYRELYFGEARLPSLFELAREAGYPGVIYLGSFSKVLSPGLRVAFAVAHPEALQKLVQAKQGADLHTPMLNQMLVHELLKEGFSERLERVRRVYREKAQAMLHALDREVPKEVRYTRPKGGMFVWMELPKGLSAEGLFRRALEENVAFVPGGPFFANGGGENTLRLSYATLDREGIAEGVRRLGRALKGLLALV”, the “soluble on expression in E. coli” value is “soluble”. The result for “MSQPIQFESNIALINYPKQAAFGRTLPKNKIYEHSGANTRLKDLFIEQVELIVWRYKLAPETINLPARPGVPELQIFSIQLKTSELNLDVLHCIDGAVQFPIIFELSFDGRTKVIAAYKRPNESDASRWVLSSYFATAWLPSDSERAAIPLALDLGGLYEQVLHRLIPMPARPQESLADLVARVEMVAAKQREVEKAASRLAKEKQFNRKVEINAQLRQLKNELEELTGRENA” reads “not soluble”; that for “MTDCCPGFGSVAKYIAVSVREASFDVRSMAATSTCIFVLEVMGRHAGWIAAAGGLASDERHELALVILFPEQVFDPERFLRAVDEKVRSHGYCSVVVSEGIRGADGRFVAESGSRDVFGHARLGGVAPVIADLIKERLGYKYHWAVADYLQRAARHIALEHHHHHH”, “not soluble”. As for “MSLSQLFKSFDASEKTQLICFPFAGGYSASFRPLHAFLQGECEMLAAEPPGHGTNQTSAIEDLEELTDLYKQELNLRPDRPFVLFGHSMGGMITFRLAQKLEREGIFPQAVIISAIQPPHIQRKKVSHLPDDQFLDHIIQLGGMPAELVENKEVMSFFLPSFRSDYRALEQFELYDLAQIQSPVHVFNGLDDKKCIRDAEGWKKWAKDITFHQFDGGHMFLLSQTEEVAERIFAILNQHPIIQPEGGSHHHHHH”, the “soluble on expression in E. coli” value is “soluble”.

Regarding “MRIEDKLYLNRYRTDEENPHLKIKDESICAEKCSDRPCVSCCPADVYEWTESGMEVKFEGCLECGTCRIVCPFGNIEWNYPRGNYGVLYKFG”, the “soluble on expression in E. coli” value is given as “soluble”. Next, “GPGSMVKPRSQGPRRPAVKQADNKSVGDRSKTAVTEKMKPSRLVGGTTGAKKERREGKKVSTGKANKVAATSASTVVLKEGGKPSGPSHGTGTNSSRRGKRSPQAQTRRAAARVASRVIESNSRITAATNRMNTAREELALFDQVTQMPAFVADPFTAIDEHLSTAMDFLQPQTPDVGRVKRE”: “soluble”; “RSPICHLFSAINSSPFKIAPEKEQDLKTIVDDKKIIISVVSEPGFNIRVRKNESNNSHEIVLTVASLEYIWAFSNFFWVFTQEYSKSQKNNDEHFDLTGKNRLKKSDELLKWARKNLQTTGCESWPKKCPKPEAYLQGSEDSQVASEIFLCAIAWILHHEISHVVLQHPLVTTAFSTQEEREADSHATKWILGNLYESAPELKKRALGIATAVLCIQSLEVENYFCLQNTHPAAYERIYSNISCYPVGNEELIEALCTVMLQYLFHGKNINVNLDGESFSSILGDLLCDISRLTSN”: “not soluble”; “MLKVIRRFFTAKQRQTPAKQDVELESGRGWAGLEEWRLVAKYSVGPVEYYLYRDNSEGVRLTFKEPPEPGEAVVKEIIAGNIEPVGEGERYHAEKRMSGYGRLYPLIIDGHIEEIAFEGPGRGVSVIHSLVPGRWIDVDLKLGEDEANSLALQLARKAGRSLSLAQPLAEGLTGEGHRVAVTFSREVSRFGSSFVIRKYPEKPVTMADLVASRVLTPLQAAYLWLLVESQQFIVVSGPMGSGKTTLLQALAGLIPPFYRVITIEDTPEIRLYNRHWDSLVTRPPLPGESMVEVDLEALLRFALRRRAEYIIVGEVRGREARLLAQAAASGHGSMTTMHGDTPEGVILRLQLEPISLPPVFLSLIGAIVMLRRLPGYGGAVRRRVVSITEIEGGEAVDVFAWDPKGDLVSPDNPRDIVESSFRLREAVSRIPDLITDLEAELSERAGLLEKLAGSPPEVFHKALARFYSERYGRV”: “soluble”. The result for “MGHHHHHHSHMTQDRPLLAVQEALKKCFPVVEEQQGLWQSALRDCQPLLSSLSNLAEQLQAAQNLRFEDVPALRAFPDLKERLRRKQLVAGDIVLDKLGERLAILLKVRDMVSSHVERVFQIYEQHADTVGIDAVLQPSAVSPSVADMLEWLQDIERHYRKSYLKRKYLLSSIQWGDLANIQALPKAWDRISKDEHQDLVQDILLNVSFFLEE” reads “not soluble”; that for “MAMHPRKDWYELTRATNWTPSYVTEEQLFPERMSGHMGIPLEKWESYDEPYKTSYPEYVSIQREKDAGAYSVKAALERAKIYENSDPGWISTLKSHYGAIAVGEYAAVTGEGRMARFSKAPGNRNMATFGMMDELRHGQLQLFFPHEYCKKDRQFDWAWRAYHSNEWAAIAAKHFFDDIITGRDAISVAIMLTFSFETGFTNMQFLGLAADAAEAGDYTFANLISSIQTDESRHAQQGGPALQLLIENGKREEAQKKVDMAIWRAWRLFAVLTGPVMDYYTPLEDRSQSFKEFMYEWIIGQFERSLIDLGLDKPWYWDLFLKDIDELHHSYHMGVWYWRTTAWWNPAAGVTPEERDWLEEKYPGWNKRWGRCWDVITENVLNDRMDLVSPETLPSVCNMSQIPLVGVPGDDWNIEVFSLEHNGRLYHFGSEVDRWVFQQDPVQYQNHMNIVDRFLAGQIQPMTLEGALKYMGFQSIEEMGKDAHDFAWADKCKPAMKKSA”, “soluble”.
